In patent US20190177704A1, “MODIFIED LUCIFERASE” (RIKEN, priority 2016, published 2019):
Positions count from the first letter of the chain named. Names may count otherwise.

B1: Variant b: luc2 variant with the mutations of column b in Table 1 (SEQ ID NO: 5) (protein)
chain: MEDAKNIKKGPAPFYPLEDGTAGEQLHKAMKRYALVPGAIAFTDAHIQVDVTYAEYFEMSVRLAEAMRRYGLNTNHRIVVCSENSLQFFMPVLGALFIGVAVAPANDIYNERELLNSMGISQPTVVFVSKKGLRKVLDVQKKLPIIRKIIIMDSKTDYQGFQSMYTFVASHLPPSFNEYDFVPECFDRDKTIALIMNSSGSTGLPKGVALPHRTACVRFSHARDPIFGYQNIPDTAILSVVPFHHGFGMFTTLGYLICGFRVVFMYRFEEELFLRSLQDYKIQSALLVPTLFSCLAKSTLIDKYDLSSLREIASGGAPLSKEVGEAVAKRFRLPGIRQGYGLTETTNAVMITPEGDRKPGSVGKVVPFFEAKVVDLVTGKTLGVNQRGELCVRGPMIMSGYVNNPEATNALIDKDGWLHSGDIAYWDEDEHFFIVDRLKSLIKYKGYQVAPAELEGILLQHPYIFDAGVAGLPDDDAGELPAAVVVLEHGKTMTEKEIVDYVASQVTTAKKLRGGVVFVDEVPRGPTGKLDARKIREILTKAKKDGKIAV
modifications: Modified Luciferase
B2: Variant d: luc2 variant with the mutations of column d in Table 1 (SEQ ID NO: 7) (protein)
chain: B1 chain with L86S, D138N, A169T, F264L, T290A, L291P
modifications: Modified Luciferase
B3: Variant c: luc2 variant with the mutations of column c in Table 1 (SEQ ID NO: 6) (protein)
chain: B1 chain with L86S, D138N, A169T, C185S, F264L, P526S
modifications: Modified Luciferase
B4: Luc2: luciferase derived from Photinus pyralis consisting of an amino acid sequence represented by SEQ ID NO: 1 (protein, listed as Photinus pyralis)
chain: MEDAKNIKKGPAPFYPLEDGTAGEQLHKAMKRYALVPGTIAFTDAHIEVDITYAEYFEMSVRLAEAMKRYGLNTNHRIVVCSENSLQFFMPVLGALFIGVAVAPANDIYNERELLNSMGISQPTVVFVSKKGLQKILNVQKKLPIIQKIIIMDSKTDYQGFQSMYTFVTSHLPPGFNEYDFVPESFDRDKTIALIMNSSGSTGLPKGVALPHRTACVRFSHARDPIFGNQIIPDTAILSVVPFHHGFGMFTTLGYLICGFRVVLMYRFEEELFLRSLQDYKIQSALLVPTLFSFFAKSTLIDKYDLSNLHEIASGGAPLSKEVGEAVAKRFHLPGIRQGYGLTETTSAILITPEGDDKPGAVGKVVPFFEAKVVDLDTGKTLGVNQRGELCVRGPMIMSGYVNNPEATNALIDKDGWLHSGDIAYWDEDEHFFIVDRLKSLIKYKGYQVAPAELESILLQHPNIFDAGVAGLPDDDAGELPAAVVVLEHGKTMTEKEIVDYVASQVTTAKKLRGGVVFVDEVPKGLTGKLDARKIREILIKAKKGGKIAV
B5: N229H_S347N: luc2 variant with N229H and S347N mutations (SEQ ID NO: 3) (protein)
chain: B4 chain with N229H, S347N
modifications: Modified Luciferase
B6: N229Y_S347N: luc2 variant with N229Y and S347N mutations (SEQ ID NO: 2) (protein)
chain: B4 chain with N229Y, S347N
modifications: Modified Luciferase
B7: N229Y_H310Q_S347N: luc2 variant with N229Y, H310Q and S347N mutations (SEQ ID NO: 4) (protein)
chain: B4 chain with N229Y, H310Q, S347N
modifications: Modified Luciferase

Key:
Type in all cases: cell-based
[1] = Emission intensity of luciferase-expressing HeLa S3 cells with biphenyl; conditions: emission intensity of D-luciferin defined as 1
Experimental: (§1) A plasmid pcDNA3 was treated with use of BamHI and EcoRI, and genes encoding the respective luciferases above were each inserted into the plasmid pcDNA3 to produce plasmids for transfection.
(§2) HeLa S3 cells were used as mammalian cells to be transfected. For each of the luciferases above, HeLa S3 cells which had been cultured in D-MEM (low glucose, containing 10% FBS and 1% penicillin streptomycin, Wako Pure Chemical Industries, Ltd.) and were in an 80% confluent state were mixed with a transfection reagent (Polyethylenimine, Linear (MW 25,000, Polysciences, Inc)) and the plasmid for transfection (0.3 μg) to conduct transfection.
(§3) 24 hours after the transfection, the cells were dissociated through trypsinization, and were suspended in DMEM/F12 (10% FBS, gibco). Subsequently, centrifugation was conducted to remove the supernatant, and then the cells were resuspended in 1 mL DMEM/F12 so as to be used as luciferase-expressing cells.
(§4) In 1.5 mL Eppendorf tube, 20 μL of the produced luciferase-expressing cells and 80 μL of a substrate solution (prepared with pH 7.4 PBS) were mixed, and light emission from the obtained mixture was measured for one minute (with use of a luminometer AB-2280 manufactured by ATTO Corporation). An integrated value of the values thus measured within one minute was defined as the emission intensity.
(§5) Subsequently, with use of D-luciferin, AkaLumine, AkaLumine-OH, 6-AkaLumine, 0-AkaLumine, monoene NMe2, monoene NH2, monoene OH, and biphenyl as substrates, specificity to each of these substrates was evaluated. The substrates are respectively represented by the following chemical formulae. Each substrate solution contains a single kind of substrate.
(§6) Tables 3 through 8 show results of relative emission intensities in a case where the emission intensity of D-luciferin is defined as 1.

[2] = Emission intensity of luciferase-expressing HeLa S3 cells with 6-AkaLumine; conditions: emission intensity of D-luciferin defined as 1
Experimental: as §1, §2, §3, §4, §5, §6

[3] = Emission intensity of luciferase-expressing HeLa S3 cells with D-luciferin; conditions: for relative emission intensity, Dluc: emission intensity of D-luciferin defined as 1; for D-luciferin emission intensity, relative value: relative to 1.0 = emission intensity of luc2 with AkaLumine, 80 μM substrate, integrated over one minute
Experimental: as §1, §2, §3, §4
(§7) As the substrate solution, AkaLumine or D-luciferin (80 μM each) was added. Results of the measurement of emission intensity are shown below in Table 2 as relative values with respect to 1.0 which is an emission intensity obtained in a case where AkaLumine was added to a sample of luc2.
as §5, §6

[4] = Emission intensity of luciferase-expressing HeLa S3 cells with monoene OH; conditions: emission intensity of D-luciferin defined as 1
Experimental: as §1, §2, §3, §4, §5, §6

[5] = Emission intensity of luciferase-expressing HeLa S3 cells with monoene NH2; conditions: emission intensity of D-luciferin defined as 1
Experimental: as §1, §2, §3, §4, §5, §6

[6] = Emission intensity of luciferase-expressing HeLa S3 cells with AkaLumine; conditions: for relative emission intensity, AKA: emission intensity of D-luciferin defined as 1; for relative emission intensity, AKA / AkaLumine emission intensity, relative value: HeLa S3 cells; for AkaLumine emission intensity, relative value: relative to 1.0 = emission intensity of luc2 with AkaLumine, 80 μM substrate, integrated over one minute; for AkaLumine/D-luciferin: ratio of relative emission intensities, Table 2
Experimental: as §1, §2, §3, §4, §7, §5, §6

[7] = Emission intensity of luciferase-expressing HeLa S3 cells with AkaLumine-OH; conditions: emission intensity of D-luciferin defined as 1
Experimental: as §1, §2, §3, §4, §5, §6

[8] = Emission intensity of luciferase-expressing HeLa S3 cells with monoene NMe2; conditions: emission intensity of D-luciferin defined as 1
Experimental: as §1, §2, §3, §4, §5, §6

[9] = Emission intensity of luciferase-expressing HeLa S3 cells with 0-AkaLumine; conditions: emission intensity of D-luciferin defined as 1
Experimental: as §1, §2, §3, §4, §5, §6

Row | Molecule | relative emission intensity, biph [1] | relative emission intensity, 6-AKA [2] | relative emission intensity, Dluc [3] | D-luciferin emission intensity, relative value [3] | relative emission intensity, monoOH [4] | relative emission intensity, monoNH2 [5] | relative emission intensity, AKA [6] | AkaLumine emission intensity, relative value [6] | relative emission intensity, AKA-OH [7] | relative emission intensity, monoNMe2 [8] | AkaLumine/D-luciferin [6] | relative emission intensity, O-AKA [9]
1 | B1 | 3.1 | 8.1 × 10^2 | 1.0 | not detected | 1.5 × 10^−2 | 1.2 × 10^−1 | 2.4 × 10^3 | 2.4 | 0.9 |  |  | 
2 | B2 | 7.5 | 1.5 × 10^3 | 1.0 | 1.8 × 10^−3 | 7.1 × 10^−2 | 1.3 × 10^−1 | 3.4 × 10^3 | 6.1 | 9.8 × 10^−1 | 6.6 | 3.4 × 10^3 | 
3 | B3 | 4.1 | 1.8 × 10^3 | 1.0 | not detected | 1.1 × 10^−1 | 1.8 × 10^−1 | 9.0 × 10^3 | 6.8 | 1.8 |  |  | 
4 | B4 | 1.4 × 10^−2 | 1.6 × 10^−1 | 1.0 | 5.5 × 10^−1 | 1.8 × 10^−3 | 3.0 × 10^−3 | 2.6 × 10^−1 | 1.0 | not detected | 1.1 × 10^−1 | 1.8 | 8.4 × 10^−3
5 | B5 | 4.9 | 8.5 × 10^2 | 1.0 |  | not detected | 4.3 × 10^−1 | 1.7 × 10^3 |  | 0.9 |  |  | 6.3
6 | B6 | 6.9 | 9.6 × 10^2 | 1.0 |  | 1.4 × 10^−2 | 1.7 | 6.4 × 10^3 |  | 2.1 | 2.4 × 10^2 |  | 
7 | B7 |  | 1.1 × 10^3 | 1.0 |  | 1.3 × 10^−1 | 7.3 × 10^−1 | 4.1 × 10^3 |  | 1.4 |  |  | 2.1 × 10^−3
